B1: TPR t1 (parent)
chain: GACCAAUCUGCCCUCAGAGCUCGAGAACAUCUUCGGAUGCAGAGGAGGCAGGCUUCGGUGGCGCGAUAGCGCCAACGUCCUCAACCUCCAAUGCAUCCCACCACAUGAUGAUGCCUGAAGAGCCUUGGUUUUUUG

The data set covers variants of B1. Nature of the data set: polymerase ribozyme fitness, log enrichment relative to wild type (log ratio); higher = more active; in vitro selection for triplet polymerase activity. The method in brief: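 Frozen incubation at −7 °C formed the core of a single, triplicate in vitro selection round applied to PCR-built, transcribed mutant libraries of each subunit of a heterodimeric triplet polymerase ribozyme. Extended constructs were gel-excised, captured with streptavidin beads and amplified by RT-PCR, and input and output libraries were Illumina-sequenced with a filter of ≥10 input reads and ≥1 read per output. Fitness is the logarithm of genotype enrichment relative to wild-type enrichment, with inverse-variance-weighted replicate averaging, and the logarithm is base 2.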
With C15G G48U A50G G63C U106A U109C, the “polymerase ribozyme fitness (log ratio)” value is -6.17. The result for G39A C124G reads 1.36. As for G36C G69U A91U C94A G113C, the “polymerase ribozyme fitness (log ratio)” value is -3.07.

As for C70A C86A U87G, the “polymerase ribozyme fitness (log ratio)” value is -2.94. For C53U U92A G113A G117A C124A, the “polymerase ribozyme fitness (log ratio)” value is -5.57. The result for C3U C28A U112A reads -2.92; that for U54C C101G, -1. The result for C3G C72U reads -2.37. For the variant C4U A121U, the “polymerase ribozyme fitness (log ratio)” value is 2.23. In the case of G60C C104U U126A it was -1.46; in that of G52A U78C, -0.748; in that of A26G G69A A91U U133G, -6.73. The result for A66U G77C C82U G128C reads -4.12; that for A6U C53G, -0.289; that for G57C A100U U112C U125C, 0.722. With G10A G42A A43U, the “polymerase ribozyme fitness (log ratio)” value was -1.82.

Take C12U A68G: the “polymerase ribozyme fitness (log ratio)” value was -1.94. In the case of U7A U92A G120A U133A it was -0.782; in that of C13G G51A C97U A111G U129A, -6.21; in that of G10C C89U U129C, -2.54. The result for G60C C99U G117A U133G reads -6.01; that for C13U G60A A100U C101U C104U A121C, 1.93.

In the case of A46U G77A C123A U129A, the “polymerase ribozyme fitness (log ratio)” value is -2.69. C28G C123U: the “polymerase ribozyme fitness (log ratio)” value is -0.975. The result for G17A G47A A111U reads -5.85. The result for C4A C114U C124A reads -2.3; that for A50U G113C, -3.07; that for C40G G47U A74U, -4.86. On to G69U A105U, for which the “polymerase ribozyme fitness (log ratio)” value is -0.0845.

For A5U C86A, the “polymerase ribozyme fitness (log ratio)” value was -0.495. As for U7G A46G C124A, the “polymerase ribozyme fitness (log ratio)” value amounted to 1.74.

In the case of C12G C22U U32G G69U C72G C102A A111U G122U, the “polymerase ribozyme fitness (log ratio)” value was -5.99. The result for C11G C31G reads -4.32; that for U9C G57U C114U G128C U130C, -1.68.

Consider G35U G42A, for which the “polymerase ribozyme fitness (log ratio)” value was -6.8. The result for G52A C73U reads -0.414. Regarding U7C U87C U92G G122A C123U, the “polymerase ribozyme fitness (log ratio)” value was -1.22.

G44C G60U: the “polymerase ribozyme fitness (log ratio)” value was -0.287. On to C76A A84U U106A G120U, for which the “polymerase ribozyme fitness (log ratio)” value was -2.24.

Regarding A26U C114U, the “polymerase ribozyme fitness (log ratio)” value was -5.07. Turning to C28G G71U, the “polymerase ribozyme fitness (log ratio)” value is -2.39.

For G58C G120U, the “polymerase ribozyme fitness (log ratio)” value turned out to be 0.305.

Turning to C11U C12G C28U U32C C49A C56G, the “polymerase ribozyme fitness (log ratio)” value is -2.91. In the case of C8G G10C G23C G25A G60C C88G G110A, the “polymerase ribozyme fitness (log ratio)” value was -7.14. Turning to C8G A43U U54C C114A A118G, the “polymerase ribozyme fitness (log ratio)” value is -4.79.

As for C79A C88U, the “polymerase ribozyme fitness (log ratio)” value is -1.33.

As for U9G G36U G60C U78A C88A, the “polymerase ribozyme fitness (log ratio)” value is -1.68. In the case of C4U G42A C114G it was -3.21. In the case of C8U U87A U112C G117U U130C, the “polymerase ribozyme fitness (log ratio)” value is -0.73. As to C70A C102U U112C, the “polymerase ribozyme fitness (log ratio)” value is -2.21. The result for C79U A118C reads -2.46. The result for U33A C88G reads -4.9; that for C70A G117C, -3.77. The result for A5U A95C G120C reads 0.108.

As to G39U C64U A84C G122A C124A, the “polymerase ribozyme fitness (log ratio)” value amounted to 0.97. Regarding G61U U116A, the “polymerase ribozyme fitness (log ratio)” value is -3.38. As to C12G G110U U130A, the “polymerase ribozyme fitness (log ratio)” value was -1.34.

In the case of C13U U131A, the “polymerase ribozyme fitness (log ratio)” value is -0.274. Take C12U U14C C72G C82G U112A: the “polymerase ribozyme fitness (log ratio)” value is 0.602. Regarding G60A C79U U130C, the “polymerase ribozyme fitness (log ratio)” value stood at 0.829. The result for C72U C89G G113C reads -3.26; that for U33G C76G C88A C115U, -6.6; that for C12U G52A U112A G120A, 1.03.

As to G63C, the “polymerase ribozyme fitness (log ratio)” value was -0.722. In the case of A41U C104U, the “polymerase ribozyme fitness (log ratio)” value is -0.832.

Consider C13G C15U G120A, for which the “polymerase ribozyme fitness (log ratio)” value was -2.44.

In the case of A50U G51A U87G U106A, the “polymerase ribozyme fitness (log ratio)” value was -2.51. In the case of C34U G93A it was -3.87. Regarding U7G G120A, the “polymerase ribozyme fitness (log ratio)” value turned out to be 1.99. The result for A5G A43G C56U C80U reads -2.61; that for A2C G69A C114A, -4.75; that for C22G C94G, -4.33. Turning to G10A G19C G63C U112G U133G, the “polymerase ribozyme fitness (log ratio)” value was -5.97. In the case of A74U U112A G113C A118C G135U it was -3.34.

C3G U96C G113U: the “polymerase ribozyme fitness (log ratio)” value was -6.42. As to C11A A18U A68G G120U, the “polymerase ribozyme fitness (log ratio)” value was -4.2. The result for A43U G61U G93U reads -1.76; that for G10A G51U G71U C101A, -6.07. In the case of C20A A41G C53A G71U U78G it was -5.43. For the variant C13G A41C A50U U133A, the “polymerase ribozyme fitness (log ratio)” value was -4.37. The result for U21A C49A G63U reads -2.05. Turning to C80U U109C, the “polymerase ribozyme fitness (log ratio)” value was -3.85. In the case of A43U C97A it was -7.59; in that of U9A A16U C89U, -0.38. The result for C11G G61C A66U A75C C114U reads -3.81; that for A18U A43U A83G C89G G110U U125A, -5.8; that for G52U C73G U112A G120A C124A U126A, -0.0832.

Consider A66C C85U C88A, for which the “polymerase ribozyme fitness (log ratio)” value was -1.61.

As for U33G U54G G58C A74G G120C, the “polymerase ribozyme fitness (log ratio)” value was -5.75. In the case of C13A G61A it was -1.81. Consider C49G G120U U132A, for which the “polymerase ribozyme fitness (log ratio)” value was -0.00759.

For the variant G17C G35A C98U G120A, the “polymerase ribozyme fitness (log ratio)” value was -5.26. The result for C8A A121U reads 2.6; that for C80G U87G C88A U112A, -4.77; that for A75G C88A C104A U112A, -1.1. The result for C31U C115A G120A reads -4.78. The result for A74U G93A C123A reads -0.279. Take U9G C72G C86A: the “polymerase ribozyme fitness (log ratio)” value is -1.02. In the case of A26U G61A it was -3.03. The result for G36C G39C C62U C124G U130G reads -1.27; that for C11U G52A A118G, -0.222. The result for C13G C40A U133A reads -2.76; that for C22U G63C U78G U112A, -4.23. In the case of C12A C62G U133G, the “polymerase ribozyme fitness (log ratio)” value is -1.75. The result for C12A C53U reads -0.724; that for G61C G120C, -1.04; that for A29C G71C A95U C124U, -4.83. For the variant G44C G63U, the “polymerase ribozyme fitness (log ratio)” value is -1.98.

Consider C70G A84U, for which the “polymerase ribozyme fitness (log ratio)” value is -3.25.

For C115A, the “polymerase ribozyme fitness (log ratio)” value is -0.202. The result for G71A C98G reads -6.1. In the case of G51A A84G A108C U112G it was -8.09; in that of C28G G39U C53U G63C C124A, -3.26.

For the variant U7C A16G A29U G63U C97U U109A, the “polymerase ribozyme fitness (log ratio)” value is -1.24. In the case of A46U C56G U78C G93C G120U it was -3.59; in that of C62G A84U A108G, -5.29. As for G57A C72U G127U, the “polymerase ribozyme fitness (log ratio)” value was -2.52.

C34U G113A C115A U132A: the “polymerase ribozyme fitness (log ratio)” value was -6.07.

With G51C U78A U106A, the “polymerase ribozyme fitness (log ratio)” value is -4.81. With C62A U131A G135A, the “polymerase ribozyme fitness (log ratio)” value is -2.64. Regarding C11G A18G C89U U96A, the “polymerase ribozyme fitness (log ratio)” value was -4.23.

Take C4U C70A: the “polymerase ribozyme fitness (log ratio)” value was -2.42. C79A C89A: the “polymerase ribozyme fitness (log ratio)” value was -3.43. In the case of A2G G42A U54G C80A U112A it was -6.02; in that of C8G C12G G44C U96A, -0.546; in that of G69U C72U C114A G128A, -3.08. Regarding A6C A16C G44C, the “polymerase ribozyme fitness (log ratio)” value is -3.74.

On to C22A C73G C82A G120U U125C, for which the “polymerase ribozyme fitness (log ratio)” value was -5.37. In the case of A46U A91C C115G it was -3.55.

For the variant C20U G71C A75G C82U U87G A90U A105G G113U, the “polymerase ribozyme fitness (log ratio)” value was -3.34. For A5U A37G C79G, the “polymerase ribozyme fitness (log ratio)” value is -1.97. In the case of C13G G45U G71U C85A it was -4.6. Turning to U9G G42U U55A, the “polymerase ribozyme fitness (log ratio)” value is -1.32. Regarding U78C U131C, the “polymerase ribozyme fitness (log ratio)” value is -0.936. For the variant C80U G93C, the “polymerase ribozyme fitness (log ratio)” value is -1.44. In the case of G58A G122A it was -0.321; in that of G61C G63U, -5.51; in that of A18U A27G C53A G71C C85G, -8.07. Turning to G61U C97A C124A, the “polymerase ribozyme fitness (log ratio)” value was -2.39. The result for G42A G45U C101A reads -4.7. The result for C15G C62G reads -5. In the case of G45U A50U G52U G58A, the “polymerase ribozyme fitness (log ratio)” value was -4.49.

Consider C11A G47U G71A A83G G107C C124U, for which the “polymerase ribozyme fitness (log ratio)” value was -7.17. C62G U87A: the “polymerase ribozyme fitness (log ratio)” value is -2.48.

With C13U A41G G60U, the “polymerase ribozyme fitness (log ratio)” value is -0.254. In the case of C70G G117A it was -3.54; in that of G39A G69A A121U G128U, -3.24; in that of G17U C40A G42A C49A, -6.46. The result for U55C C62G reads -1.97; that for U59A G128A, -1.96.

For the variant C11A C70U G117A, the “polymerase ribozyme fitness (log ratio)” value was -6.1. As for G58A G120U, the “polymerase ribozyme fitness (log ratio)” value is -0.283. The result for G17U C124A reads -1.01; that for C3U C8A G25A C31G C70G U92A C94A C98G C99G G117U, -6.98; that for A16G U32A A50C C88U C123G U125A, -3.77. In the case of A5U C11U U54A C89A it was -2.83. In the case of U14G A24G G61A U78C it was -4.74. As for C8A G35C G71A, the “polymerase ribozyme fitness (log ratio)” value is -5.94.

In the case of A5U C8G C15A A41U G48A C49U G113A U129C, the “polymerase ribozyme fitness (log ratio)” value was -5.44. Regarding C8U G23C C34U G61A G93A U109C, the “polymerase ribozyme fitness (log ratio)” value was -6.59. In the case of C8A U9G A16G A24G G39C G60A C64A U92C G110U G113U A121U C123G U126G it was -6.69; in that of A37G G39A C86G, -3.13. In the case of G65C U87A it was -5.6. Take C22A C85U: the “polymerase ribozyme fitness (log ratio)” value is -4.92. The result for U9C C13A C102U A111C reads -0.646; that for A27U U54A, -2.8; that for A95C, -0.933.
